Source: US20070231329A1

Tests used:
[1] = molecular target: extracellular region of human V158 FcγRIIIa with C-terminal 6x His-tag and GST-tag (human) (UniProt P08637); test: SPR, His-tagged receptor immobilized, antibody flowed
[2] = molecular target: extracellular region of human F158 FcγRIIIa with C-terminal 6x His-tag and GST-tag (human) (UniProt P08637); test: SPR, receptor immobilized, antibody flowed
[3] = molecular target: FcγRIIIa on human PBMCs expressing heterozygous V158/F158 FcγRIIIa (human) (UniProt P08637); test: cell-based or functional assay
[4] = molecular target: extracellular region of human V158 FcγRIIIa with C-terminal 6x His-tag and GST-tag (human) (UniProt P08637); test: SPR

Chain of extracellular region of human V158 FcγRIIIa with C-terminal 6x His-tag and GST-tag (human) (P08637 17-208 F176V, chain 1 of 2): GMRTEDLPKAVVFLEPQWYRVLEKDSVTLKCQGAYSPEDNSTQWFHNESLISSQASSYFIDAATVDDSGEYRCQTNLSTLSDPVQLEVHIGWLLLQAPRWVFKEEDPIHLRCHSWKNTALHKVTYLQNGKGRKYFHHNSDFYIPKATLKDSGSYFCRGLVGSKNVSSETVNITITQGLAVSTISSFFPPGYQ
Chain of extracellular region of human V158 FcγRIIIa with C-terminal 6x His-tag and GST-tag (human) (P08515 whole entry, chain 2 of 2, further chain): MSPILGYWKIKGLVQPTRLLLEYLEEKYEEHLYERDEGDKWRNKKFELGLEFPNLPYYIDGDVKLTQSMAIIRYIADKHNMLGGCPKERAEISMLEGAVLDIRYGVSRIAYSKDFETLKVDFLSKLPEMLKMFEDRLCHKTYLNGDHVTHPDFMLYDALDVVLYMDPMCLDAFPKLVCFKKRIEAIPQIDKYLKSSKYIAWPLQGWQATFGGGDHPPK
Chain of extracellular region of human F158 FcγRIIIa with C-terminal 6x His-tag and GST-tag (human) (P08637 17-208, chain 1 of 2): as the sequence (P08637 17-208 F176V, chain 1 of 2) above, with V160F counted along it
Chain of extracellular region of human F158 FcγRIIIa with C-terminal 6x His-tag and GST-tag (human) (P08515 whole entry, chain 2 of 2, further chain): as the sequence (P08515 whole entry, chain 2 of 2, further chain) above

Kd [1] [nM] | Kd [2] [nM] | Fold WT V158 FcγRIIIa [4] [fold] | Substance | further results
31 | 72 | – | I332E alemtuzumab (antibody) | –
– | – | 1.38 | E272R alemtuzumab (antibody) | –
– | – | 2.31 | E283H alemtuzumab (antibody) | –
52 | 285 | – | S298A alemtuzumab (antibody) | –
– | – | 12.8 | S304T alemtuzumab (antibody) | –
64 | 550 | – | V264I alemtuzumab (antibody) | –

Further lines, the substance ahead of its results:

Substance | Kd [1] [nM] | Kd [2] [nM] | Fold WT V158 FcγRIIIa [4] [fold] | further results
V264I/I332E alemtuzumab (antibody) | 17 | 52 | – | ADCC, DoHH-2 target cells: EC50 [3]: 4 ng/mL; ADCC, DoHH-2 target cells: log (EC50) [3]: 0.6 log (ng/ml)
V284E alemtuzumab (antibody) | – | – | 1.51 | –
S239D/I332E alemtuzumab (antibody) | – | – | – | ADCC, DoHH-2 target cells: EC50 [3]: 3 ng/mL; ADCC, DoHH-2 target cells: Fold WT [3]: 3.3 fold; ADCC, DoHH-2 target cells: log (EC50) [3]: 0.49 log (ng/ml)
S298A/E333A/K334A alemtuzumab (antibody) | 39 | 156 | – | –
